Measurements reported in paper PMC2889250.
Read-outs that look alike come from different tables or passages of the source.

Experiments:
Experiment in all cases: SDS-PAGE
recombinant NaK channel [1] = molecular target: recombinant NaK channel
recombinant NaK channel [2] = molecular target: recombinant NaK channel; remark: listed apart in the source
[3] = molecular target: semisynthetic NaK channel (residues 19-110)

| stoichiometry N (recombinant NaK channel [1]) | stoichiometry N (recombinant NaK channel [2]) | Substance | stoichiometry N [3] |
| --- | --- | --- | --- |
| 4 | 4 | recombinant NaK channel (natural protein) | – |
| – | – | semisynthetic NaK channel (residues 19-110) (natural protein) | 4 |
